In assay [1] the target is T1, TmrA C416S/L290C (chain of the double cysteine mutant of cysteine-less WT TmrAB) (Thermus thermophilus, UniProt Q72J05 1-600, C416S | L290C).
T1 construct: TmrA, Thermus thermophilus, the chain of TmrAB with the canonical Walker B motif; Cysteine-less template made by GenScript; co-expressed with the TmrB chain; also called C416S^TmrA/L290C^TmrA
T1 sequence: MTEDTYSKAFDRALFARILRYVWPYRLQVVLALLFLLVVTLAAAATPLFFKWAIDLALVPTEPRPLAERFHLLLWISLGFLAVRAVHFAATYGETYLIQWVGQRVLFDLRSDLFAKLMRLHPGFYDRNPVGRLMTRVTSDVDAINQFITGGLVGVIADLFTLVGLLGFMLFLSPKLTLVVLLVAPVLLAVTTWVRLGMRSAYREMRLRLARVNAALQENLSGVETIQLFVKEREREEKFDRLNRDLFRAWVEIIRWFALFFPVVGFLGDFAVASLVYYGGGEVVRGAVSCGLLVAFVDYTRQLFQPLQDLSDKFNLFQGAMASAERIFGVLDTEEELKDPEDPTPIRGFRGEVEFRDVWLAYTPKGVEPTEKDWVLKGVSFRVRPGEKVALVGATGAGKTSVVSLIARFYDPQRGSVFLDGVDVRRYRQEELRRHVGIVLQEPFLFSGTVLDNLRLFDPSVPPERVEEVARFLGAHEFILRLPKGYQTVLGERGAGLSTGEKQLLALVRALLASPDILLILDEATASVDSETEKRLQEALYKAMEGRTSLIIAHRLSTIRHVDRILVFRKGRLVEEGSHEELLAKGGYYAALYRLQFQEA
The experiment in a line: cross-linking; disulfide cross-linking of engineered cysteines: 1 uM TmrAB double cysteine mutants in SEC buffer, 0.5 mM copper phenanthroline, 68°C, without or with 5 mM ATP, 10 mM MgCl2 and/or 8 mM sodium orthovanadate; SDS-PAGE, ~150 kDa band of the cross-linked dimer. The following applies: both partners purified.

The target in assay [2] is T2, TmrA G131A/C416S/L290C (chain of the double cysteine mutant of G131A^TmrA TmrAB) (Thermus thermophilus, UniProt Q72J05 1-600, G131A | C416S | L290C).
T2 construct: TmrA, Thermus thermophilus, the chain of TmrAB with the canonical Walker B motif; Cysteine-less template made by GenScript; co-expressed with TmrB V275C; also called PSM glycine mutant
T2 sequence: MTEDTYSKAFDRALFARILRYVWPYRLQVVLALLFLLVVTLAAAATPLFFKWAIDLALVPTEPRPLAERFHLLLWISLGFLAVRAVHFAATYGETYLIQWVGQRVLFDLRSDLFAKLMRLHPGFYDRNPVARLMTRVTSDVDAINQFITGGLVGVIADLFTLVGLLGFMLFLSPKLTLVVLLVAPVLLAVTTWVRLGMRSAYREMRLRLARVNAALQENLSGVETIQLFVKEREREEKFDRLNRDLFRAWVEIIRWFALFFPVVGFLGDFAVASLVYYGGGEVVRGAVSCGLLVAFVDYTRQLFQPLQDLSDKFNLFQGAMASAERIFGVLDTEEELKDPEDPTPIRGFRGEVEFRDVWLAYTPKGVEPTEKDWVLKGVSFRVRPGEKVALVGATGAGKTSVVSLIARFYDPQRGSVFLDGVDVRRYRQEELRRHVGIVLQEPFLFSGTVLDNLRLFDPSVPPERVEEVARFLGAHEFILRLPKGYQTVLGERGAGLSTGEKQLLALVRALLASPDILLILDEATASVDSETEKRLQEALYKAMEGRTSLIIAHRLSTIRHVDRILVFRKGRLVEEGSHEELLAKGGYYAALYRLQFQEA
Described as above. The following applies: both partners purified.

B1: TmrB G116A/V275C (chain of the double cysteine mutant of G116A^TmrB TmrAB) (natural protein, Thermus thermophilus)
chain: MTGRSAAPLLRRLWPYVGRYRWRYLWAVLAGLVSIFFFVLTPYFLRLAVDAVQAGRGFGVYALAIVASAALSGLLSYAMRRLAVVASRQVEYDLRRDLLHHLLTLDRDFYHKHRVADLMNRLNTDLSAVREMVGPGILMGSRLSFLVLLAFLSMYAVNARLAFYLTLILPGIFLAMRFLLRLIDRRYREAQEVFDRISTLAQEAFSGIRVVKGYALERRMVAWFQDLNRLYVEKSLALARVEGPLHALLGFLMGFAFLTVLWAGGAMVVRGELSCGELVQFNAYLAQLTWPILGLGWVMALYQRGLTSLRRLFELLDEKPAIRDEDPLPLALEDLSGEVRFEGVGLKRDGRWLLRGLTLTIPEGMTLGITGRTGSGKSLLAALVPRLLDPSEGRVYVGGHEARRIPLAVLRKAVGVAPQEPFLFSETILENIAFGLDEVDRERVEWAARLAGIHEEILAFPKGYETVLGERGITLSGGQRQRVALARALAKRPKILILDDALSAVDAETEARILQGLKTVLGKQTTLLISHRTAALRHADWIIVLDGGRIVEEGTHESLLQAGGLYAEMDRLQKEVEA
notes: TmrB, Thermus thermophilus, the chain of TmrAB with the non-canonical Walker B motif; Co-expressed with TmrA C416S/L290C; The cloning paragraph prints G116A^TmrA, all other places G116A^TmrB; also called PSM glycine mutant
Turning to B1, the binding result in assay [1] is “binds”.

B2: TmrB V275C (chain of the double cysteine mutant of cysteine-less WT TmrAB) (natural protein, Thermus thermophilus)
chain: MTGRSAAPLLRRLWPYVGRYRWRYLWAVLAGLVSIFFFVLTPYFLRLAVDAVQAGRGFGVYALAIVASAALSGLLSYAMRRLAVVASRQVEYDLRRDLLHHLLTLDRDFYHKHRVGDLMNRLNTDLSAVREMVGPGILMGSRLSFLVLLAFLSMYAVNARLAFYLTLILPGIFLAMRFLLRLIDRRYREAQEVFDRISTLAQEAFSGIRVVKGYALERRMVAWFQDLNRLYVEKSLALARVEGPLHALLGFLMGFAFLTVLWAGGAMVVRGELSCGELVQFNAYLAQLTWPILGLGWVMALYQRGLTSLRRLFELLDEKPAIRDEDPLPLALEDLSGEVRFEGVGLKRDGRWLLRGLTLTIPEGMTLGITGRTGSGKSLLAALVPRLLDPSEGRVYVGGHEARRIPLAVLRKAVGVAPQEPFLFSETILENIAFGLDEVDRERVEWAARLAGIHEEILAFPKGYETVLGERGITLSGGQRQRVALARALAKRPKILILDDALSAVDAETEARILQGLKTVLGKQTTLLISHRTAALRHADWIIVLDGGRIVEEGTHESLLQAGGLYAEMDRLQKEVEA
notes: TmrB, Thermus thermophilus, the chain of TmrAB with the non-canonical Walker B motif; Co-expressed with the TmrA chain; also called V275C^TmrB
For the molecule B2, the binding result in assay [2] and in assay [1] was “binds” each time.

For the origin of these results see publication doi:10.1101/2020.01.12.903617, “The peptide sensor motif stabilizes the outward-facing conformation of TmrAB” (bioRxiv, 2020).
